Experimental data from patent publication US20190338034A1 (Genentech, published 2019).
Where a chain is given by its changes, count along the chain named.

B1: anti-idiotypic anti-PD-L1 antibody 43B5 (antibody, mouse IgG2a, kappa, V domains shown)
VH: EVQLQQSGPELVKPGASVKISCKASGYSFTDYIMLWVKQSHGKSLEWIGNINPYYGSTSYNLKFKGKATLTVDKSSSTAYMQLNSLTSEDSAVYYCARWGGNYEGWFAYWGQGTLVTVSA
VL: DIKMTQSPSSMSVSLGDTVSITCHASQGISSNIGWLQQKPGKSFKGLIYHGTNLEDGVPSRFSGSGSGADYSLTISSLESEDFADYYCVQYAQFPLTFGAGTKLELKR
notes: Mouse monoclonal from a hybridoma
B2: anti-idiotypic anti-PD-L1 antibody 105D11 (antibody, mouse IgG2a, kappa, V domains shown)
VH: EVQLVETGGGLVKPGGSLKLSCAASGFAFSSYDMSWVRQTPEKRLEWVAYISSGGGSTYYPDTVKGRFTISRDNAKNTLYLQMSSLKSEDTAMYYCARLVYYDYDDAMDYWGQGTSVTVSS
VL: DIVLTQSPAIMSASPGEKVTITCSASSSVSYMHWFQQKPGTSPKLWIYSTSNLASGVPARFSGSGSGTSYSLTISRMEAEDAATYYCQQRSSYPPTFGGGTRLEIKR
notes: as for B1
B3: anti-idiotypic anti-PD-L1 antibody 48C1 (antibody, mouse IgG2a, kappa, V domains shown)
VH: B2 VH with T7S, L99T, V100I, D103G, A107V
VL: B2 VL with D1Q, S92G, R102K
notes: Mouse monoclonal from a hybridoma; also called atezolizumab anti-idiotypic mouse mAB clone 48C1; atezolizumab anti-ID antibody 48C1

Tests used:
[1] = biological target: T1, atezolizumab (anti-PD-L1 antibody); assay: immunofixation electrophoresis (Sebia IFE) gel shift, atezolizumab 1500 µg/mL in PBS pre-incubated 2 h with anti-ID antibody
T1 construct: Full IgG/Ig kappa antibody as used in the IFE gel shift assays; also called anti-PDL1 antibody atezolizumab

[2] = biological target: T2, YW167B.43 Negative Control; assay: SPR (BIAcore), anti-ID captured, YW167B.43 negative control Fab injected at 500 nM, 25 °C. The software prints this 1:1 fit under a flat sensorgram with no response.
T2 construct: also called framework control Fab
Protocol: (§1) Binding affinities of anti-PDL1 anti-ID antibodies were measured by Surface Plasmon Resonance (SPR) using a BIAcore™-[…] instrument. Anti-idiotypic antibodies were captured by an anti-mouse-Fc antibody coated on CM5 biosensor chips to achieve approximately 200 response units (RU). For kinetics measurements, 500 nM of anti-PDL1 Fab or framework control Fab (YW167B.43) (Genentech, South San Francisco, Calif.) were injected in HBS-P+ buffer (0.1M HEPES, 1.5M NaCl, 0.5% Surfactant P20—GE Life Science) at 25° C. with a flow rate of […]. Association rates (kₐ) and dissociation rates (kd) were calculated using a simple one-to-one Langmuir binding model (BIAcore Evaluation Software version 3.2). The equilibrium dissociation constant (KD) was calculated as the ratio koff/kₒₙ. See also FIG. 3-5.

[3] = biological target: T3, anti-PDL1 Fab (Fab of anti-PD-L1 antibody atezolizumab); assay: SPR (BIAcore), anti-ID captured by anti-mouse-Fc on a CM5 chip, anti-PDL1 antibody Fab injected at 500 nM, 25 °C, 1:1 binding model
T3 construct: Fab format (Genentech); also called anti-PDL1 antibody Fab
Protocol: as §1

[4] = biological target: T3, anti-PDL1 Fab (Fab of anti-PD-L1 …); assay: SPR (BIAcore), anti-idiotypic antibody captured by anti-mouse-Fc on CM5 chip, 500 nM anti-PDL1 Fab injected, 25 C, 1:1 Langmuir model
Protocol: as §1

[5] = biological target: T2, YW167B.43 Negative Control; assay: SPR (BIAcore), anti-ID captured, YW167B.43 negative control Fab injected at 500 nM, 25 °C. The software prints this 1:1 fit under a flat sensorgram with no positive response.
Protocol: as §1

Binder	binding result [1]	Kd [2] [nM]	koff [2] [s⁻¹]	kon [2] [M⁻¹ s⁻¹]	Kd [3] [nM]	koff [3] [s⁻¹]	kon [3] [M⁻¹ s⁻¹]	Kd [4] [nM]	koff [4] [s⁻¹]	kon [4] [M⁻¹ s⁻¹]	Kd [5] [nM]	koff [5] [s⁻¹]	kon [5] [M⁻¹ s⁻¹]
B1	binds	0.222	0.000128	574000	89	0.00878	98600	90.7	0.00862	95000			
B2	binds	31.7	1.66	5.23e+07	17.5	0.00648	370000	16.5	0.0045	279000			
B3	binds				2.64	0.000949	360000	2.31	0.000977	421000	127	0.000421	3310
